In the RNAGym collection of RNA variant scans (doi:10.7554/elife.90254):

B1: OR4K15 (parent)
chain: GUUAACGGUCAUAGGCCAUGGAAACUAGGAGCACCAUUUCGCUGCCAGUGAAGAAAUGAACAAAGAAAAUCUGGGCCAGGCAGGCAUCAAAAGAAAUAGUCUUGCGCUCAACCAGAAAGUCUGUAAUCAUUUUAAGGGUA

Variants of: B1
Experiment: self-cleavage, relative activity (ratio to wild type); higher = more cleavage; in vitro, sequencing; the parent is a self-cleaving ribozyme

First: GUUAACGGUCAUAGGCCAUGGAUACUAGGAGCACCAUUUCGCUGCCAGUGAAGAAAUGAACAAAGAAAAUCUGGGCCAGGCAGGCUUCAAAAGAAAUAGUCUUGCGCUCAACCAGAAAGUCUGUAAUCAUUUUAAGGGUA
Second: GUUAACGGUCAUAGGCCAUGGAUACUAGGAGCACCAUUUCGCUGCCAGUGAAGAAAUGAACAAAGAAAAUCUGGGCCAGGCAGGCGUCAAAAGAAAUAGUCUUGCGCUCAACCAGAAAGUCUGUAAUCAUUUUAAGGGUA
The self-cleavage of the first is higher: 1.32 for the first, 0.48 for the second.

Going from GUUAACGGUCAUAGGCCAUGGAUACUAGGAGCACCAUUUCGCUGCCAGUGAAGAAAUGAACAAAGAAAAUCUGGGCCAGGCAGGCAUCAAAAGAAAUAGUCUUGCGCUCAACCAGAGAGUCUGUAAUCAUUUUAAGGGUA to GUUAACGGUCAUAGGCCAUGGAUACUAGGAGCACCAUUUCGCUGCCAGUGAAGAAAUGAACAAAGAAAAUCUGGGCCGGGCAGGCAUCAAAAGAAAUAGUCUUGCGCUCAACCAGAAAGUCUGUAAUCAUUUUAAGGGUA, the self-cleavage falls from 1.14 to 0.31.

Compared with GUUAACGGUCAUAGGCCAUGGAUACUAGGAGCACCAUUUCGCUGCCAGUGCAGAAAUGAACAAAGAAAAUCUGGGCCAGGCAGGCAUCAAAAGAAAUAGUCUUGCGCUCAACCAGAAAGUCUGUAAUCAUUUUAAGGGUA, GUUAACGGUCAUAGGCCAUGGAUACUAGGAGCACCAUUUCGCUGCCAGUGAAGAAAUGAACAAAGAGAAUCUGGGCCAGGCAGGCAUCAAAAGAAAUAGUCUUGCGCUCAACCAGAAAGUCUGUAAUCAUUUUAAGGGUA is higher in self-cleavage: 1.55 for the first, 1.73 for the second.

First: GUUAACGGUCAUAGGCCAUGGAGACUAGGAGCACCAUUUCGCUGCCAGUGAAGAAAUGAACAAAGAAAAUCCGGGCCAGGCAGGCAUCAAAAGAAAUAGUCUUGCGCUCAACCAGAAAGUCUGUAAUCAUUUUAAGGGUA
Second: GUUAACGGUCAUAGGCCAUGGAGACUAGGAGCACCAUUUCGCUGCCAGUGAAGAAAUGAACAAAGAAAAUCUGGGCCAGGCAGGCAUCAAAAGAAAUAGUCUUGCGCUCAACCAGAAAGUCUGUAACCAUUUUAAGGGUA
The self-cleavage of the first is lower: 0.3 for the first, 0.79 for the second.

Compared with GUUAACGGUCAUAGGCCAUGGAGACUAGGAGCACCAUUUCGCUGCCAGUGAAGAAAUGAACAAAGAAAAUCUGGGCCAGGCAGGCAUCAAAAGAAAUAGUCUUGCGCUCAACCAGAAAGUCUGUAAGCAUUUUAAGGGUA, GUUAACGGUCAUAGGCCAUGGAGACUAGGAGCACCAUUUCGCUGCCAGUGAAGAAAUGAACAAAGAAAAUCUGGGCCAGGCAGGCAUCAAAAGAAAUAGUCUAGCGCUCAACCAGAAAGUCUGUAAUCAUUUUAAGGGUA is lower in self-cleavage: 1 for the first, 0.75 for the second.

Going from GUUAACGGUCAUAGGCCAUGGAUACUAGGAGCACCAUUUCGCUGCCAGUGAGGAAAUGAACAAAGAAAAUCUGGGCCAGGCAGGCAUCAAAAGAAAUAGUCUUGCGCUCAACCAGAAAGUCUGUAAUCAUUUUAAGGGUA to GUUAACGGUCAUAGGCCAUGGAGACUAGGAGCACCAUUUCGCUGCCAGUGAAGAAAUGAACAAAGAAAAUCUGGGCCAGGCAGGCAUCAAAAGAAAUAGUCUUGCGCUCAACCAGAAAGUCCGUAAUCAUUUUAAGGGUA, the self-cleavage falls from 1.2 to 0.84.

Going from GUUAACGGUCAUAGGCCAUGGAUACUAGGAGCACCAUUUCGCUGCCAGUGAAGAAAUGAACAAAGAAAAUCUGGGCCAGGCAGGCAUCAAAAGAAAUAGUCUUGCGCUCAACCAGAAAGUCUGUAAUCUUUUUAAGGGUA to GUUAACGGUCAUAGGCCAUGGAUACUAGGAGCACCAUUUCGCUGCCUGUGAAGAAAUGAACAAAGAAAAUCUGGGCCAGGCAGGCAUCAAAAGAAAUAGUCUUGCGCUCAACCAGAAAGUCUGUAAUCAUUUUAAGGGUA, the self-cleavage rises from 0.79 to 1.04.

Going from GUUAACGGUCAUAGGCCAUGGAUACUAGGAGCACCAUUUCGCUGCCGGUGAAGAAAUGAACAAAGAAAAUCUGGGCCAGGCAGGCAUCAAAAGAAAUAGUCUUGCGCUCAACCAGAAAGUCUGUAAUCAUUUUAAGGGUA to GUUAACGGUCAUAGGCCAUGGAUACUAGGAGCACCAUUUCGCUGCCAGUGAAGAAAUGAACAAAGAAAAUCUGGGCCAGGCAGGCAUCAAAAGAAAUAGUCUUGCGCUCAGCCAGAAAGUCUGUAAUCAUUUUAAGGGUA, the self-cleavage falls from 0.67 to 0.04.

First: GUUAACGGUCAUAGGCCAUGGAGACUAGGAGCACCAUUUCGCUGCCAGUGAAGAAAUGAACAAAGAAAAUCUGGGCCAGGCAGGCAUCAAAAGAAAUAGUCUUGCGCUCAACCAGAAAGUCUGUAAUCAUUUUAAGGGCA
Second: GUUAACGGUCAUAGGCCAUGGAGACUAGGAGCACCAUUUCGCUGCCAGUGAAGAAAUGAACAAAGAAAAUCUGGGCCAGGCAGGCAUCAAAAGAAAUAGUCUUGCGCUCAACCAGAAAGACUGUAAUCAUUUUAAGGGUA
The self-cleavage of the first is higher: 1.26 for the first, 0.47 for the second.

Going from GUUAACGGUCAUAGGCCAUGGAGACUAGGAGCACCAUUUCGCUGCCAGUGAAGAAAUGAACAAAGAAAAUCUGGGCCAGGCAGGCAUCAAAAGAAAUAGUCUUGCGCUCAACCAGAAAGCCUGUAAUCAUUUUAAGGGUA to GUUAACGGUCAUAGGCCAUGGAGACUAGGAGCACCAUUUCGCUGCCAGUGAAGAAAUGAACAAAGAAAAUCUGGGCCAGGCAGGCAUCAAAAGAAAUAGUCUUGCGCUCAACCAGAAAGGCUGUAAUCAUUUUAAGGGUA, the self-cleavage rises from 0.96 to 1.48.

Compared with GUUAACGGUCAUAGGCCAUGGAUACUAGGAGCACCAUUUCGCUGCCAGUGAAGAAAUGAACAAAGAAAAUCUGGGCCAGGCAGGCAUCAAAAGAAGUAGUCUUGCGCUCAACCAGAAAGUCUGUAAUCAUUUUAAGGGUA, GUUAACGGUCAUAGGCCAUGGAGACUAGGAGCACCAUUUCGCUGCCAGUGAAGAAAUGAACAAAGAAAAUCUGGGCCAGGCAGGCAUCAAAAGAAAUAGUCUUGCGCUCAACCAGAAAGUCUGCAAUCAUUUUAAGGGUA is lower in self-cleavage: 1.59 for the first, 0.69 for the second.

Compared with GUUAACGGUCAUAGGCCAUGGAGACUAGGAGCACCAUUUCGCUGCCAGUGAAGAAAUGAACAAAGAAAAUCUGGGCCAGGCAGGCAUCAAAAGAAAUAGUCUUGCGCUCAACCAGAAAGUCUGAAAUCAUUUUAAGGGUA, GUUAACGGUCAUAGGCCAUGGAUACUAGGAGCACCAUUUCGCUGCCAGUGAAGAAAUGAGCAAAGAAAAUCUGGGCCAGGCAGGCAUCAAAAGAAAUAGUCUUGCGCUCAACCAGAAAGUCUGUAAUCAUUUUAAGGGUA is higher in self-cleavage: 0.25 for the first, 1.24 for the second.

First: GUUAACGGUCAUAGGCCAUGGAGACUAGGAGCACCAUUUCGCUGCCAGUGAAGAAAUGAACAAAGAAAAUCUGGGCCAGGCAGGCACCAAAAGAAAUAGUCUUGCGCUCAACCAGAAAGUCUGUAAUCAUUUUAAGGGUA
Second: GUUAACGGUCAUAGGCCAUGGAGACUAGGAGCACCAUUUCGCUGCCAGUGAAGAAAUGAACAAAGAAAAUCUGGGCCAGGCAGGCAACAAAAGAAAUAGUCUUGCGCUCAACCAGAAAGUCUGUAAUCAUUUUAAGGGUA
The self-cleavage of the first is lower: 0.61 for the first, 0.94 for the second.

Going from GUUAACGGUCAUAGGCCAUGGAUACUAGGAGCACCAUUUCGCUGCCAGUGAAGAAAUGAACAAAGGAAAUCUGGGCCAGGCAGGCAUCAAAAGAAAUAGUCUUGCGCUCAACCAGAAAGUCUGUAAUCAUUUUAAGGGUA to GUUAACGGUCAUAGGCCAUGGAUACUAGGAGCACCAUUUCGCUGCCAGUGAAGAAAUGAACAAAGAAAAUCUGGGCCAGGCAGGCAUCAAAAGAAAUAGUCUUGCGCUCAACCAGAAGGUCUGUAAUCAUUUUAAGGGUA, the self-cleavage falls from 1.16 to 0.66.

Compared with GUUAACGGUCAUAGGCCAUGGAUACUAGGGGCACCAUUUCGCUGCCAGUGAAGAAAUGAACAAAGAAAAUCUGGGCCAGGCAGGCAUCAAAAGAAAUAGUCUUGCGCUCAACCAGAAAGUCUGUAAUCAUUUUAAGGGUA, GUUAACGGUCAUAGGCCAUGGAUACUAGGUGCACCAUUUCGCUGCCAGUGAAGAAAUGAACAAAGAAAAUCUGGGCCAGGCAGGCAUCAAAAGAAAUAGUCUUGCGCUCAACCAGAAAGUCUGUAAUCAUUUUAAGGGUA is lower in self-cleavage: 1.09 for the first, 0.26 for the second.

First: GUUAACGGUCAUAGGCCAUGGAGACUAGGAGCACCAUUUCGCUGCCAGUGAAGAAAUGAACAAAGAAAAUCUGGGCCAGGCAGGCAUCAAAAGAAAAAGUCUUGCGCUCAACCAGAAAGUCUGUAAUCAUUUUAAGGGUA
Second: GUUAACGGUCAUAGGCCAUGGAGACUAGGAGCACCAUUUCGCUGCCAGUGAAGAAAUGAACAAAGAAAAUCUGGGCCAGGCAGGCAUCAAAAGAAACAGUCUUGCGCUCAACCAGAAAGUCUGUAAUCAUUUUAAGGGUA
The self-cleavage of the first is higher: 1.48 for the first, 0.8 for the second.

Going from GUUAACGGUCAUAGGCCAUGGAGACUAGGAGCACCAUUUCGCUGCCAGUGAAGAAAUGAACAAAGAAAAUCUGGGCCAGGCAGGCAUCAAAAGAAAUAGUCCUGCGCUCAACCAGAAAGUCUGUAAUCAUUUUAAGGGUA to GUUAACGGUCAUAGGCCAUGGAGACUAGGAGCACCAUUUCGCUGCCAGUGAAGAAAUGAACAAAGAAAAUCUGGGCCAGGCAGGCAUCAAAAGAAAUAGUCUUGCGCUCAACCAGAAAGUCUGUAAUCAUCUUAAGGGUA, the self-cleavage falls from 1.87 to 0.45.

First: GUUAACGGUCAUAGGCCAUGGAGACUAGGAGCACCAUUUCGCCGCCAGUGAAGAAAUGAACAAAGAAAAUCUGGGCCAGGCAGGCAUCAAAAGAAAUAGUCUUGCGCUCAACCAGAAAGUCUGUAAUCAUUUUAAGGGUA
Second: GUUAACGGUCAUAGGCCAUGGAUACUAGGAGCUCCAUUUCGCUGCCAGUGAAGAAAUGAACAAAGAAAAUCUGGGCCAGGCAGGCAUCAAAAGAAAUAGUCUUGCGCUCAACCAGAAAGUCUGUAAUCAUUUUAAGGGUA
The self-cleavage of the first is higher: 1.38 for the first, 1.17 for the second.

First: GUUAACGGUCAUAGGCCAUGGAGACUAGGAGCACCAUUUCGCUGCCAGCGAAGAAAUGAACAAAGAAAAUCUGGGCCAGGCAGGCAUCAAAAGAAAUAGUCUUGCGCUCAACCAGAAAGUCUGUAAUCAUUUUAAGGGUA
Second: GUUAACGGUCAUAGGCCAUGGAUACUAGGAGCACCAUUUCGCUGCCAGUGAAGGAAUGAACAAAGAAAAUCUGGGCCAGGCAGGCAUCAAAAGAAAUAGUCUUGCGCUCAACCAGAAAGUCUGUAAUCAUUUUAAGGGUA
The self-cleavage of the first is lower: 0.9 for the first, 1.59 for the second.

Going from GUUAACGGUCAUAGGCCAUGGAUACUAGGAGCACCAUUUCGCUGCCAGUGAAGUAAUGAACAAAGAAAAUCUGGGCCAGGCAGGCAUCAAAAGAAAUAGUCUUGCGCUCAACCAGAAAGUCUGUAAUCAUUUUAAGGGUA to GUUAACGGUCAUAGGCCAUGGAUACUGGGAGCACCAUUUCGCUGCCAGUGAAGAAAUGAACAAAGAAAAUCUGGGCCAGGCAGGCAUCAAAAGAAAUAGUCUUGCGCUCAACCAGAAAGUCUGUAAUCAUUUUAAGGGUA, the self-cleavage falls from 1.61 to 1.16.

For GUUAACGGUCAUAGGCCAUGGAGACUAGGAGCACCAUUUCGCUGCCAGUGAAGAAAUGAACAAAGAAAAUCUGGGCCAGGCAGGCAUCAAAAGAAAUAGUCUUGCGCACAACCAGAAAGUCUGUAAUCAUUUUAAGGGUA, the self-cleavage was 0.02.
